Results published in article PMC3596498.

Target: SciP (Caulobacter crescentus)

B1: C. crescentus Lon (enzyme)
chain: MSELRTLPVLPLRDIVVFPHMVVPLFVGRDKSVRALEEVMRGDKQILLVTQKNSADDDPAPGDIFEVGVLATVLQLLKLPDGTVKVLVEGKARAAVVSFTDQESYYEAQIGEVSEDDGAGPEAEALSRAVVEQFENYVKLNKKVPPEALASIPQIAEPGKLADSIAAHLSVKIGDKQNLLEIFDVVKRLEKVFALMEGEISVLQVEKKIRSRVKRQMEKTQREYYLNEQMKAIQRELGDPDDARDELIDLEKRIKKTKLSKEARTKAESELKKLRNMSPMSAESTVVRNYLDWLLSIPWGKAKTKKIDLVESEGILDADHYGLEKVKERILEYLAVQARTNSLKGPILCLVGPPGVGKTSLGKSIAKATGREFVRMSLGGVRDEAEIRGHRRTYIGSMPGKVVQSMKKAKTTNAFVLLDEIDKMGSDYRGDPASALLEVLDPSQNSTFGDHYLEVDYDLSQVMFVTTANSLNMPQPLLDRMEIIRIPGYTEDEKLEIAKRHILPKLAKDHGLKPAEFIVPDKAIRDLIRYYTREAGVRSLERELGALARKTVRDLAREKVASITIDDERLAKYAGVKKYRYGETDEVDQVGIVTGLAWTEFGGDILTIEAVKMPGKGRMQITGNLKDVMKESIAAANSYVRSRALQFGIKPPVFEKTDVHIHVPDGATPKDGPSAGIAMALAMVSVLTGIPIRKDIAMTGEITLRGRVTAIGGLKEKLLAALRSGVKTVLIPQENEKDLADVPQTVKDGLEIIPVSTVDEVLKHALTGPLTPVEWNEAEEPITTSAKKDDGDSDAMLTH
Question: For B1, which half-life of purified SciP (0.5 µM) degraded by purified Lon (0.5 µM) in vitro is on record?
Answer: 12 min
